Laboratory results from article PMC2185574 (The Journal of Cell Biology, 2000).

Target: T1, 6xHis-tagged Mrs6p, wild-type (S. cerevisiae, UniProt P32864 1-603)
T1 sequence: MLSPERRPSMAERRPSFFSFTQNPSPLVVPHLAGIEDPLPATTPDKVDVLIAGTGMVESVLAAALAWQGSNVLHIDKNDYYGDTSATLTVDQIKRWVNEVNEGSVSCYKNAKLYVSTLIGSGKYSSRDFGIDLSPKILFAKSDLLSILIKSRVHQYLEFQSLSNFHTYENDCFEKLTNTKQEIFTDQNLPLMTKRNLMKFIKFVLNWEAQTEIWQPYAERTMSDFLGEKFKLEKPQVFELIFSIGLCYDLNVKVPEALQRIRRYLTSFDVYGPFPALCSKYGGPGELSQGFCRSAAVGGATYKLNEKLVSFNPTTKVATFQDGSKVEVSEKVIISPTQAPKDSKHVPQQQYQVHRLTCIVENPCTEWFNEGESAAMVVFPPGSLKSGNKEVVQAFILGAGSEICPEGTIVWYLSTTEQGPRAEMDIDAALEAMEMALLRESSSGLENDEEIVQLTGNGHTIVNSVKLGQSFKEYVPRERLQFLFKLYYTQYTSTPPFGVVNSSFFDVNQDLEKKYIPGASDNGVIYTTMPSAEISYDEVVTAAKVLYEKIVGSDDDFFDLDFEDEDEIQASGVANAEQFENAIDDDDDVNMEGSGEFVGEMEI
Test: other fluorescence titration

B1: prenylated His6-tagged Rab3A (natural protein)
chain: MASATDSRYGQKESSDQNFDYMFKILIIGNSSVGKTSFLFRYADDSFTPAFVSTVGIDFKVKTIYRNDKRIKLQIWDTAGQERYRTITTAYYRGAMGFILMYDITNEESFNAVQDWSTQIKTYSWDNAQVLLVGNKCDMEDERVVSSERGRQLADHLGFEFFEASAKDNINVKQTFERLVDVICEKMSESLDTADPAVTGAKQGPQLSDQQVPPHQDCAC
modifications: prenylated (residues not stated)
  Kd: 0.32 µM
